In the nanobody polyreactivity screen of Harvey et al. (2022):

Assay: yeast display, Sf9 membrane polyspecificity reagent, FACS + sequencing; frameworks hold sequencing errors
Summary of the method: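 Nanobodies came from a synthetic yeast display library in Saccharomyces cerevisiae BJ5465, induced with galactose for 36–48 hours and stained for 1 hour at 4 °C with 10% biotinylated, detergent-solubilized Sf9 membrane reagent. Cells were enriched on streptavidin microbeads and then FACS-sorted, with low and high (top ~1%) gates set on anti-HA fluorescence for expression and streptavidin fluorescence for reagent binding. Each polyreactivity label reflects the gate a clone came from. Genes were amplified by colony PCR, sequenced by MiSeq 2 × 250 and filtered by CDR length.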

Sequence | polyreactivity (PSR sort gate)
QVQLVESGGGLVQAGGSLSLSCAASGYIFVPYAMGWYRQAPGKERELVAAISWSTGTTYYADSVKGRFTISRDNAKNTVYLQMNSLKPEDTAVYYCAAEGYDWIYLYYGLGYWGQGTQVTVSS | low polyreactivity
QVQLVESGGGLVQAGGSLRLSCAASGSTFIYYTMGWYRQAPGKERELVAAIPSSGGSTYYADSVKGRFTISRDNAKNTVYLQMNSLKPEDTAVYYCAADGTYIKFAKLYRRYDYWGQGTLVTVSS | low polyreactivity
QVQLVESGGGLVQAGGSLRLSCAASGRTFAANTMGWYRQAPGKERELVAAISSSGGSTSYADSVKGRFTISRDNAKNTVYLQMNSLKPEDTAVYYCNTLLRRDFNYWGQGTQVTVSS | high polyreactivity
QVQLVESGGGLVQAGGSLRLSCAASGLTFDAYAMGWSRPAPGKERELVAAISWSGGSTYYAASVKGRFTISRDNAKNTVYLQMNSLKPEDTAVYYCNARYAQFRYWGQGTQVTVSS | high polyreactivity
QVHLVESGGGLVQAGGSLRLSSAAYGGIFDDNAMGWYRQAHGKERELVAAISSSGGSTYYADSVKGRFTISRDNAKYTVYLQMNSLKPEDTAVYYCNADRRRRFGYWGQGTQVNVSS | high polyreactivity
QVQLVESGGGLVQAGCSLRLSCAASGRIFSFYAMGWYRQAPGKERELVITSGGDTNYADSVKGRFTISRDNAKNTVYLQLNSLKPEDTAVYYCNAEGDRSQPYNFDYWGQGTQVTVSS | low polyreactivity
QVQLVESGGGLVQAGGSLRLSCAASGSISRRYVMGWYRQAPGKERELVAAISTSGGSTYYADSVKGRFTISRDNAKNTVYLQMNSLKPEDTAVYYCAADLPVQGGFDYWGQGTQVTVSS | low polyreactivity
QFQLVESGGGLVQAGGSLRLSCAASGSTFWVYAMGWYRQAPGKERDLVAAITFRTTSTYYADSVKGRFTISRDTAKNSVSLQLKSLIPDDNAVYFCAATEYYATEYDYWGQCTQVTVSS | low polyreactivity
QVQLVESAGGLVQAGGSLRLRSAASGSTIWHNAMGWYRHAPGKERELVAGISGSGGSTYYADSVKGRFTISRDNAKNTVYLEMNSMKPDDTAVYYCATDGRSRVDGVRRGPYDYWGQGTHVTVSS | low polyreactivity
QVQLVESGGGLVQAGGSLRLSCAASGRTFRGYAMGWYRQAPGKERELVAGISRSGGSTYYADSVKGRFTISRDNAKNTVYLQMNSLKPEDTAVYYCNAVPIYYAWRRNKPFDYWGQGTQVTVSS | low polyreactivity
QVQLVESGGGLVQAGGSLRLSCAASGFTFSYYAMGWYRQAPGKERELVAAITKRGGRTYYADSVKGRFTISRDNAKNTVYLQMNSLKPEDTAVYYCAVQARNAFYRPAFDYWGQGTQVTVSS | high polyreactivity
QVQLVESGGGLVQAGGSLRLSCAASGSTFVGYAMGWYRQAPGKERELVADIDSIGGSTYYADSVNGRFTISRDNAKNTVYLQMNSLKPEDTAVYYCAARRFDTALVLYDYWGQGTQVTVSS | low polyreactivity
QVQLVESGGGLVQAGGSLRLSCAASGRTFGDYAKGWYRQAPGKERELVAAISKSGGITYYADSVKGRFTISRDNAKNTVYLQMNSLKPEDTAVYYCAARRSGEGNYWGQGTQVTVSS | high polyreactivity
QVQLVESGGGLVQAGGSLRLSCAASGRTLASNAMGWYRQAPGKEREFVAAITDSGGRTYYADSVKGRFTISRDNAKNTVYLQMNSLKPEDTAVYYCNAYQYYERYDTYLFRYDYWGQGTQVTVSS | low polyreactivity
QVQRVESGGGLFQAGGRLRLSCAATGSIFTPNAMGWYRQAPGKERELVAAISSSSDRTYYADSVKGRFTISRDKAKNTVYLQMNSLKPEDTAVYYCAAYAQKRYYWGQGTQVTVSS | high polyreactivity
QVQLVESGGGLVQAGGSLRLSCAASGSTFIYNAMGWYRQAPGKERELVAAISSGGSTYYADSVKGRFTISRDNAKNTVYLQMNSLKPEDTAVYYCNAYRYRHYRVDYWGQGTQVTVSS | low polyreactivity

Sequence | polyreactivity (PSR sort gate)
QVQLVESGGGLVQAGGSLRLSCAASGGIFRIYAMGWYRQAPGKERELVASISRSGGRTYYADSVKGRFTISRDNAKNTVYLQMNSLKPEDTAVYYCAVSLQGYNQVDYYYWGQGTQVTVSS | high polyreactivity
QVQLVESGGGLVQAGGSLRLSCAASGFTFSFYAIGWYRQAPGKERELVAAINYSGGRTYYADSVKGRFTISRDNAKNTVYLQMNSLKPEDTAVYYCAVHIPSVSGVTDYYYWGQGSQVTVSS | high polyreactivity
QVQLVESGGGLVQAGGSLRLSCAASGRTFVLYTMGWYRQAPGKERELLAVGSTYYADSVKGRFTISRDNAKNTVYLQMNSLKPEDTAVYYCAVDLYWSYFNGALGYRYYYWGQGTQVTVSS | high polyreactivity
QVQLVESGGGLVQAGASLRLSCAATGNIFVPNAMGWYRQEPGKERELVAAIRRGGSTNYADSVKGRFTISRDNAKNTVYLQMNSMKPEDTAVYYCAKSRVSFTELEGYYWGQGTQVNVSS | low polyreactivity
QVQLVESGGRLVQAGGSLRLSCSASGSTFRRNAMGWYRQAPGKERELVAAISWSSTRTYYADSVKGRFTISRDNAKNTVYLQMNSLKPEDTAVYYCAADSYGGGFQLYSYVSGLYYWGEGTQVTVSS | high polyreactivity
QVQLVESGGGLVQAGGSLRLSCAASGFTLGHYAMGWYRQAPGKERELVAVITSGSSTNYADSVKGRFTISRDNAKNTVYLQMNSLKPDDTAVYYCAAEDPYFKWLYYYWGQGTQVTVSS | low polyreactivity
QDQLVESGGGLVQSGGSLLLSCAPSGSTFVWYAMGWYRQERGKEMEFDATISWSDGSTYYADSVKGRFTISRDNPKNTVYLQMNILKPEDTAVYYCAAEQYGYYYSLWEYDNIWEGYWGPGTQVTVSS | low polyreactivity
QVQLVESGGGIVQAGGSLRLTCAASGRIFRSYAMGWYRQAPGKERELVATITWSGTSTYADSVKGRFTISRDNAKNTVYLQMNSLKPEDTAVYYCAAVALFPKYRYYSWGQGTQVTVSS | high polyreactivity
QVQLVESGGGLVQAGGSLRLSCAASGSTFQRYAMGGSRQAPGKERELVAAITAGGSTYYADSVKGRFTISRDNAKNTVYLQLNSLKPEDTAVYYCNAAWFYRYGYWGQGTQVTVSS | high polyreactivity
QVQLVESGGGVVQAGCSLRISCAASGIFRKYAMGWYRQAPGKERELVAAITWGGGRTYYADSVKGRFTISRDNAKNTVYFQMNSLKPEDTAVYYCAAAKTGRGRGTTGYGYCGQGTQVTVSS | high polyreactivity
QVQLVESGGGLVQAGGSLRLSCAASGSTFRSNAMGWYRQAPGKERELVAAISRRGGSTYYADSVKGRFTISRDNAKNTVDLQMNSLKPEDTAVYYCAKGYIGFPISSFLYDYWGQGTQVTVSS | high polyreactivity
QVQLVESGGGLVQAGGSLRLSCAASGSIFVAYAMGWYRQAPGKERELVAAITAVGSTYYADSVKGRFTISRDNAKNTVYLQMNSLKAEDTAVYYCAKRQLRPTYRYGYWGQGNQVTVSS | low polyreactivity
QVQLVESGGGLVQAGGSLRLSCAASGSTLQVNAMGWYRQATGKERELVDTISFSGGSTYYADSVKGRFTISRDNAKNTVYLQMNSLKPEDTAVYYCNADSFVSWYNQFWYQATYDYWGQGTQVTVSS | low polyreactivity
QVQLVESGGGLVQSGGSLRLSWAASGSIFVTYAMRCYRPAPGKERELVAAINSGGRTNYADSVKGRFTISRDNAMNTVFLNMNSMKPEDTAVYYCAATGRYFDPYYRYDYWGQGTQVTVSS | low polyreactivity
QVQLVESAGGLVQAGGSHRLSCAASGITFYRYVMARYRQAPGKERELVAAITSGGNTYYADSVKGRFTISRDNAKNTFYLQMNRLKPDDTAVYYCAAYFSGPFDYWGQGTQVTVSS | high polyreactivity
QVQLEESGGGLVQAGGSLRLSCAASGRTFGYYAMGWYRQAPGKERELVAAISTRSGSTYYADSVKGRFTISRDNAKNTVYLQMISLKPEDTAVYYCAADSYPDYDYWGQGTQVTVSS | low polyreactivity
